From patent US20180155451A1 (published 2018)
Positions count from the first letter of the chain named. In names and notes the source's numbering stands.

T1: FcγRIIb (human, UniProt P31994 43-217)
T1 construct: extracellular domain; also called FcgRIIb; 2b; not shown: His tag attached to the C terminus
T1 sequence (looked up): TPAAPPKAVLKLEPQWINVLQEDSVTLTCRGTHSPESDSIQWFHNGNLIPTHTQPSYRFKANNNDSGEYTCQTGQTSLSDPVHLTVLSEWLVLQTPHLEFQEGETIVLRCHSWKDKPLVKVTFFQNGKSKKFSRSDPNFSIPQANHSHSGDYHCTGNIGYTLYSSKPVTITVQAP

T2: FcγRIIa H (human, UniProt P12318 34-217)
T2 construct: extracellular domain; also called FcgRIIa H; FcγRIIa type H; not shown: His tag attached to the C terminus
T2 sequence (looked up): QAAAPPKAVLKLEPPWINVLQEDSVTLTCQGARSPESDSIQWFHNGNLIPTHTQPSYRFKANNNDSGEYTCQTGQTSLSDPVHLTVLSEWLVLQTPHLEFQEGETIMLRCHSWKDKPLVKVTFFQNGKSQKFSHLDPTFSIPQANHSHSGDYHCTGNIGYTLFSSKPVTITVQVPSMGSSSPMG

B1: GpH7-A5/GpH7-B3 variant P238_10E/GpL16-k0 (antibody, human IgG1, kappa)
heavy 1: not shown
heavy 2: not shown
light: DIVMTQSPLSLPVTPGEPASISCQASESLVHSNRNTYLHWYLQKPGQSPQLLIYKVSNRFSGVPDRFSGSGSGTDFTLKISRVEAEDVGVYYCSQNTHVPPTFGQGTKVEIERTVAAPSVFIFPPSDEQLKSGTASVVCLLNNFYPREAKVQWKVDNALQSGNSQESVTEQDSKDSTYSLSSTLTLSKADYEKHKVYACEVTHQGLSSPVTKSFNRGEC
notes: also called He Ab P238_10E
B2: GpH7-A5/GpH7-B3 variant S337_09D/GpL16-k0 (antibody, human IgG1, kappa)
heavy 1: not shown
heavy 2: not shown
light: B1 light
notes: also called He Ab S337_09D
B3: GpH7-A5/GpH7-B3 variant S324_15Y/GpL16-k0 (antibody, human IgG1, kappa)
heavy 1: not shown
heavy 2: not shown
light: B1 light
notes: also called He Ab S324_15Y
B4: GpH7-TA1/GpH7-B3-15-02A/GpL16-k0 (antibody, human IgG1, kappa)
heavy 1: QVQLVQSGAEVKKPGASVTVSCKASGYTFTDYEMHWIRQPPGEGLEWIGAIDPKTGDTAYSESFQDRVTLTADKSTSTAYMELSSLTSEDTAVYYCTRFYSYTYWGQGTLVTVSSASTKGPSVFPLAPSSKSTSGGTAALGCLVKDYFPEPVTVSWNSGALTSGVHTFPAVLQSSGLYSLSSVVTVPSSSLGTQTYICNVNHKPSNTKVDKKVEPKSCDKTHTCPPCPAPEYLGGPSVFLFPPKPKDTLMISRTPEVTCVVVDVSHEDPEVKFNWYVDGVEVHNAKTKPREEQYNSTYRVVSVLTVLHQDWLNGKEYKCKVSNKALPAPIEKTISKAKGQPREPQVYTLPPSRKELTKNQVSLTCLVKGFYPSDIAVEWESNGQPENNYKTTPPVLDSDGSFFLYSKLTVDKSRWQQGNVFSCSVMHEALHNRYTQKSLSLSP
heavy 2: not shown
light: B1 light
notes: H1 L234Y; H2 S298A
B5: GpH7-TA4/GpH7-B3-15-02A/GpL16-k0 (antibody, human IgG1, kappa)
heavy 1: B4 heavy 1 with G234W
heavy 2: not shown
light: B1 light
notes: H1 L234Y and G236W; H2 S298A
B6: GpH7-TA6/GpH7-B3-01-15Y/GpL16-k0 (antibody, human IgG1, kappa)
heavy 1: B4 heavy 1 with Y232L, G234W, S296A
heavy 2: not shown
light: B1 light
notes: H1 G236W and S298A; H2 L234Y
B7: GpH7-A5/GpH7-B3-01-15Y/GpL16-k0 (antibody, human IgG1, kappa)
heavy 1: not shown
heavy 2: not shown
light: B1 light
notes: also called He Ab L234_15Y; GpH7-A5/GpH7-B3 variant L234_15Y/GpL16-k0
B8: GpH7-A5/GpH7-B3 variant S337_15Y/GpL16-k0 (antibody, human IgG1, kappa)
heavy 1: not shown
heavy 2: not shown
light: B1 light
notes: also called He Ab S337_15Y
B9: GpH7-A5/GpH7-B3 variant A330_11K/GpL16-k0 (antibody, human IgG1, kappa)
heavy 1: not shown
heavy 2: not shown
light: B1 light
notes: Heterodimerized IgG1, mutation in the GpH7-B3 chain only; also called He Ab
B10: GpH7-A5/GpH7-B3 variant T335_13S/GpL16-k0 (antibody, human IgG1, kappa)
heavy 1: not shown
heavy 2: not shown
light: B1 light
notes: also called He Ab T335_13S
B11: GpH7-TA3/GpH7-B3-03-20W/GpL16-k0 (antibody, human IgG1, kappa)
heavy 1: B4 heavy 1 with Y232L, S296A
heavy 2: not shown
light: B1 light
notes: H1 S298A; H2 G236W
B12: GpH7-A5/GpH7-B3 variant S324_16H/GpL16-k0 (antibody, human IgG1, kappa)
heavy 1: not shown
heavy 2: not shown
light: B1 light
notes: also called He Ab S324_16H
B13: GpH7-A5/GpH7-B3 variant P271_01G/GpL16-k0 (antibody, human IgG1, kappa)
heavy 1: not shown
heavy 2: not shown
light: B1 light
notes: also called He Ab P271_01G
B14: GpH7-A5/GpH7-B3 variant S337_10E/GpL16-k0 (antibody, human IgG1, kappa)
heavy 1: not shown
heavy 2: not shown
light: B1 light
notes: also called He Ab S337_10E
B15: GpH7-A5/GpH7-B16/GpL16-k0 (antibody, human IgG1, kappa)
heavy 1: not shown
heavy 2: not shown
light: B1 light
notes: also called He Ab L234_10E; GpH7-A5/GpH7-B3 variant L234_10E/GpL16-k0
B16: GpH7-A5/GpH7-B3-15-02A/GpL16-k0 (antibody, human IgG1, kappa)
heavy 1: not shown
heavy 2: not shown
light: B1 light
notes: H2 S298A
B17: GpH7-A5/GpH7-B3 variant T335_20W/GpL16-k0 (antibody, human IgG1, kappa)
heavy 1: not shown
heavy 2: not shown
light: B1 light
notes: also called He Ab T335_20W
B18: GpH7-A5/GpH7-B3 variant S337_20W/GpL16-k0 (antibody, human IgG1, kappa)
heavy 1: not shown
heavy 2: not shown
light: B1 light
notes: also called He Ab S337_20W
B19: GpH7-A5/GpH7-B3-03-20W/GpL16-k0 (antibody, human IgG1, kappa)
heavy 1: not shown
heavy 2: not shown
light: B1 light
notes: also called He Ab G236_20W; GpH7-A5/GpH7-B3 variant G236_20W/GpL16-k0
B20: GpH7-A5/GpH7-B3 variant S267_09D/GpL16-k0 (antibody, human IgG1, kappa)
heavy 1: not shown
heavy 2: not shown
light: B1 light
notes: also called He Ab S267_09D
B21: GpH7-A5/GpH7-B3 variant S337_04F/GpL16-k0 (antibody, human IgG1, kappa)
heavy 1: not shown
heavy 2: not shown
light: B1 light
notes: also called He Ab S337_04F
B22: GpH7-A5/GpH7-B3 variant T335_15Y/GpL16-k0 (antibody, human IgG1, kappa)
heavy 1: not shown
heavy 2: not shown
light: B1 light
notes: also called He Ab T335_15Y
B23: GpH7-TA2/GpH7-B3-01-15Y/GpL16-k0 (antibody, human IgG1, kappa)
heavy 1: B4 heavy 1 with Y232L, G234W
heavy 2: not shown
light: B1 light
notes: H1 G236W; H2 L234Y
B24: GpH7-A5/GpH7-B3 variant S267_02A/GpL16-k0 (antibody, human IgG1, kappa)
heavy 1: not shown
heavy 2: not shown
light: B1 light
notes: also called He Ab S267_02A
B25: GpH7-TA4/GpH7-B3/GpL16-k0 (antibody, human IgG1, kappa)
heavy 1: B4 heavy 1 with G234W
heavy 2: not shown
light: B1 light
notes: H1 L234Y and G236W
B26: GpH7-A5/GpH7-B3 variant S324_02A/GpL16-k0 (antibody, human IgG1, kappa)
heavy 1: not shown
heavy 2: not shown
light: B1 light
notes: also called He Ab S324_02A
B27: GpH7-A5/GpH7-B3 variant S337_18N/GpL16-k0 (antibody, human IgG1, kappa)
heavy 1: not shown
heavy 2: not shown
light: B1 light
notes: also called He Ab S337_18N
B28: GpH7-TA6/GpH7-B3/GpL16-k0 (antibody, human IgG1, kappa)
heavy 1: B4 heavy 1 with Y232L, G234W, S296A
heavy 2: not shown
light: B1 light
notes: H1 G236W and S298A
B29: GpH7-A5/GpH7-B3 variant S337_14T/GpL16-k0 (antibody, human IgG1, kappa)
heavy 1: not shown
heavy 2: not shown
light: B1 light
notes: also called He Ab S337_14T
B30: GpH7-A5/GpH7-B3 variant S298_14T/GpL16-k0 (antibody, human IgG1, kappa)
heavy 1: not shown
heavy 2: not shown
light: B1 light
notes: also called He Ab S298_14T
B31: GpH7-A5/GpH7-B3 variant T335_19Q/GpL16-k0 (antibody, human IgG1, kappa)
heavy 1: not shown
heavy 2: not shown
light: B1 light
notes: also called He Ab T335_19Q
B32: GpH7-A5/GpH7-B3 variant T335_10E/GpL16-k0 (antibody, human IgG1, kappa)
heavy 1: not shown
heavy 2: not shown
light: B1 light
notes: also called He Ab T335_10E
B33: GpH7-TA5/GpH7-B3/GpL16-k0 (antibody, human IgG1, kappa)
heavy 1: B4 heavy 1 with S296A
heavy 2: not shown
light: B1 light
notes: H1 L234Y and S298A
B34: GpH7-A5/GpH7-B3 variant T335_07I/GpL16-k0 (antibody, human IgG1, kappa)
heavy 1: not shown
heavy 2: not shown
light: B1 light
notes: also called He Ab T335_07I
B35: GpH7-A5/GpH7-B3 variant Q295_14T/GpL16-k0 (antibody, human IgG1, kappa)
heavy 1: not shown
heavy 2: not shown
light: B1 light
notes: also called He Ab Q295_14T
B36: GpH7-TA5/GpH7-B3-03-20W/GpL16-k0 (antibody, human IgG1, kappa)
heavy 1: B4 heavy 1 with S296A
heavy 2: not shown
light: B1 light
notes: H1 L234Y and S298A; H2 G236W
B37: GpH7-A5/GpH7-B3 variant T335_16H/GpL16-k0 (antibody, human IgG1, kappa)
heavy 1: not shown
heavy 2: not shown
light: B1 light
notes: also called He Ab T335_16H
B38: GpH7-A5/GpH7-B3 variant V266_08L/GpL16-k0 (antibody, human IgG1, kappa)
heavy 1: not shown
heavy 2: not shown
light: B1 light
notes: also called He Ab V266_08L
B39: GpH7-A5/GpH7-B17/GpL16-k0 (antibody, human IgG1, kappa)
heavy 1: not shown
heavy 2: not shown
light: B1 light
notes: also called He Ab L234_09D; GpH7-A5/GpH7-B3 variant L234_09D/GpL16-k0
B40: GpH7-TA7/GpH7-B3/GpL16-k0 (antibody, human IgG1, kappa)
heavy 1: B4 heavy 1 with G234W, S296A
heavy 2: not shown
light: B1 light
notes: H1 L234Y, G236W and S298A

Tests used:
[1] = target: T3, FcγRIIIa extracellular domain with C-terminal His tag (human, UniProt P08637 17-208); test: SPR relative binding; GpH7-A5/GpH7-B3/GpL16-k0 = 100
T3 construct: extracellular domain; also called FcgRIIIa; 3a; not shown: His tag at the C terminus
Description: Analysis of interaction between objective antibody and the FcγR was carried out using Biacore T100 (GE Healthcare). HBS-EP+ (GE Healthcare) was used as the running buffer, and the measurement temperature was set to 25° C. Chips produced by immobilizing the antigen peptide by the amine coupling method to a Series S Sencor Chip CM5 (GE Healthcare), or alternatively, chips produced by allowing preliminarily biotinylated antigen peptides to interact with and immobilize onto a Series S Sensor Chip SA (certified) (GE Healthcare) were used. Antibodies of interest were captured onto an antigen peptide-immobilized chip, and allowed to interact to each FcγR diluted with running buffer. To regenerate and repeatedly use the chip, the antibodies captured on the chip were washed off by reacting 10 mM glycine-HCl, pH 1.5.
The FcγR-binding activity of each antibody was assessed primarily using as an indicator the FcγR-binding activity and dissociation constant for FcγR.

FcγRIIb = target: T1, FcγRIIb; test: SPR (Biacore), antibody captured, FcγR as analyte; binding relative to GpH7-A5/GpH7-B3/GpL16-k0 = 100
FcγRIIa H = target: T2, FcγRIIa H; test: as above

T3 sequence (P08637 17-208): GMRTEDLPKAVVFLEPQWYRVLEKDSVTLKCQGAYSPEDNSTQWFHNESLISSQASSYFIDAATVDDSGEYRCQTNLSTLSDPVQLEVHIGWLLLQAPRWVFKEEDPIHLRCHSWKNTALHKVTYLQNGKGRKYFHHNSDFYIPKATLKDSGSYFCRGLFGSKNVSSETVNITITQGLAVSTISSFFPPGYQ

Binder	He/Con_3a [1]	FcγRIIIa BINDING ACTIVITY [1]	further results
B1	105 % of control		
B2	110 % of control		
B3	101 % of control		
B4		142 % of control	
B5		151 % of control	
B6		103 % of control	
B7	130 % of control	131 % of control	
B8	102 % of control		
B9			He/Con_2b (FcγRIIb): 95 control = 100; He/Con_2aH (FcγRIIa H): 109 control = 100
B10	105 % of control		
B11		70 % of control	
B12	104 % of control		
B13	113 % of control		
B14	105 % of control		
B15	114 % of control		
B16		163 % of control	
B17	102 % of control		
B18	101 % of control		
B19	135 % of control	140 % of control	
B20	181 % of control		

Binder	He/Con_3a [1]	FcγRIIIa BINDING ACTIVITY [1]	further results
B21	101 % of control		
B22	104 % of control		
B23		130 % of control	
B24	150 % of control		
B25		168 % of control	
B26	104 % of control		
B27	104 % of control		
B28		228 % of control	
B29	101 % of control		
B30	113 % of control		
B31	102 % of control		
B32	107 % of control		
B33		208 % of control	
B34	107 % of control		
B35	115 % of control		
B36		97 % of control	
B37	104 % of control		
B38	118 % of control		
B39	117 % of control		
B40		201 % of control	
